Literature values in paper PMC5830169.

Target: rhodopsin (UniProt P02699)
Sequence of UniProt P02699 (P02699 whole entry): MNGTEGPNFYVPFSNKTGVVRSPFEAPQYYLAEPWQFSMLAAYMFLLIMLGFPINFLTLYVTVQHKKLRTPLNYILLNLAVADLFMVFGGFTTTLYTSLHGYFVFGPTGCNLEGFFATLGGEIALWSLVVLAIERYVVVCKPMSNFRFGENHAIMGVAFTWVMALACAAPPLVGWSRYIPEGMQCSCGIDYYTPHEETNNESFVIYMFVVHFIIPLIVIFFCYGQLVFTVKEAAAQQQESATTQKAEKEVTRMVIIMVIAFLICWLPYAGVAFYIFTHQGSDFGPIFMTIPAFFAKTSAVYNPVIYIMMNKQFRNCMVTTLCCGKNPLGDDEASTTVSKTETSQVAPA

Substance: visual arrestin (from UniProt P10523)
- Kd: 0.05 µM
